Experimental data as given in patent US20030229203.

Experiments:
[1] = biological target: IP-10 (UniProt P02778)
[2] = biological target: Eotaxin (UniProt P51671)
[3] = biological target: MCP-2 (UniProt P80075)
[4] = biological target: MCP-1 (UniProt P13500)
[5] = biological target: RANTES(1-68) (UniProt P13501)
Sequence of RANTES(1-68) (P13501 24-91): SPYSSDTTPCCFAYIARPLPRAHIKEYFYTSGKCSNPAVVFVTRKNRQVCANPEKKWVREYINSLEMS

Sequence of Eotaxin (P51671 24-97): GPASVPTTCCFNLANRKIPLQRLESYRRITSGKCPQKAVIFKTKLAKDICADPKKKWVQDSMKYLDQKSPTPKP
Sequence of MCP-1 (P13500 whole entry, looked up): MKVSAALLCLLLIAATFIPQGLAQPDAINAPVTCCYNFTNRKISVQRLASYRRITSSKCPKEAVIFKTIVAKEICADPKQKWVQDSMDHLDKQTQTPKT
Sequence of IP-10 (P02778 whole entry, looked up): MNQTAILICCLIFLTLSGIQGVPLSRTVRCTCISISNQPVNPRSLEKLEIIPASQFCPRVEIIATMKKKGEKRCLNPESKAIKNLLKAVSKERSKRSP
Sequence of MCP-2 (P80075 24-99): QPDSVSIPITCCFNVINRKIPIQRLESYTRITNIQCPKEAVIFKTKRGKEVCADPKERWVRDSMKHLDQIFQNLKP

enzymatically active (E+) recombinant soluble human CD26 (sCD26)
CD26 cleavage (ES-MS after overnight digestion with sCD26) [1]: Yes
CD26 cleavage (ES-MS after overnight digestion with sCD26) [2]: Yes
CD26 cleavage (ES-MS after overnight digestion with sCD26) [3]: Yes
CD26 cleavage (ES-MS after overnight digestion with sCD26) [4]: No
hydrolysis of rhRANTES by sCD26 (ES-MS of cleavage products) [5]: 100 nM rhRANTES underwent partial to complete hydrolysis when incubated overnight at 37 °C with increasing amounts (25 to 250 (U) of sCD26
